Two molecules from PMC11444335, “Next-generation cell-penetrating antibodies for tumor targeting and RAD51 inhibition” (Oncotarget, 2024) can be followed below.

Where a chain is given by its changes, count along the chain named. In names and notes the source's numbering stands.

This assay concerns the target T1, human RAD51 (Homo sapiens, UniProt Q06609).
T1 construct: DNA repair protein RAD51, human, expressed from the CMV-hRAD51 plasmid (Addgene #125570); Endogenous RAD51 of the MCF7 cells is also present and would be detected by the same anti-RAD51 blot; also called hRAD51; source: MCF7, transiently transfected with CMV-hRAD51 plasmid, in cells and lysate
Put plainly: cross-linking + co-IP; CLIP: MCF7 cells transfected with 10 ug CMV-hRAD51 plasmid, treated with 500 nM purified antibody for 6 h, UV crosslinked, lysed; antibody captured on Protein A/G beads, eluate blotted with anti-RAD51; RAD51 signal normalized to Fc signal of the lysate and to WT. The note with it: one partner purified.

T1 sequence (Q06609 whole entry): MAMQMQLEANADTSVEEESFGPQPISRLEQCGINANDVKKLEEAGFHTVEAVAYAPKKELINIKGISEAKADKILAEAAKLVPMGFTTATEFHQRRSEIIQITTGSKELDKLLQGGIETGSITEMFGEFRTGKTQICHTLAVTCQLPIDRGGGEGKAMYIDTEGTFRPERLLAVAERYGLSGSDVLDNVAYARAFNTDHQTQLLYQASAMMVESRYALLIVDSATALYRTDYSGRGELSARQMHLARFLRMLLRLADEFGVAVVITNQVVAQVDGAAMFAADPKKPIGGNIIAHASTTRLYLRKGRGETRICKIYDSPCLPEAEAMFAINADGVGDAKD

B1: fully humanized full-length 3E10 variant V31 (VH3 + VL1, IgG1) (antibody, V domains shown)
VH: EVQLVESGGGLVQPGGSLRLSCAASGFTFSNYGMHWVRQAPGKGLEWVAYISSGSSTIYYADTVKGRFTISRDNAKNSLYLQMTSLRAEDTAMYYCARRGLLLDYWGQGTLVTVSS
VL: DIVLTQSPASLAVSPGQRATITCRASKSVSTSSYSYMHWYQQKPGQPPKLLIYYASYLESGVPARFSGSGSGTDFTLTINPVEANDTANYYCQHSREFPWTFGGGTKVEIK
notes: humanized VH3 (CDR graft of 3E10 on germline IGHV3-48*01, with N31); human IgG1 heavy chain constant region; humanized VL1 (CDR graft of 3E10 on germline IGKV7-3*01); IgG1; all humanized variants contain the D31N mutation; source: Chinese hamster ovary cells, purified (Genscript)
For the molecule B1, the binding result was “binds”.

B2: full-length chimeric WT 3E10 (murine variable chains, human IgG1 Fc domain) (antibody, V domains shown)
VH: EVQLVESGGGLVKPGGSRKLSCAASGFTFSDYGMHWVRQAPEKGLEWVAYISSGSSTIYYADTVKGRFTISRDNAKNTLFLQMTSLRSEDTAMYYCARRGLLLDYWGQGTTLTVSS
VL: B1 VL with P15L, T22S, Y53K, T78N, N80H, A84E, N85E, T87A, N89T, V108L
notes: murine 3E10 VH, wild type (D31 in CDR1); human IgG1 heavy chain constant region; murine 3E10 VL, wild type; IgG1 chimera; also called parental 3E10; source: purified antibody
Turning to B2, the binding result was “binds”.
